Test results reported in patent CN116410305A (ATTOGEN BIOMEDICAL SUZHOU INC LTD, dated 2023).

Molecular target: T1, 宫颈癌组织/细胞中内源的HPV16 E6蛋白 (HPV16, UniProt P03126 1-158)
T1 construct: Target detected by IHC or ICC in fixed tissue or cells; also called HPV16 E6致癌蛋白; HPV16 E6癌蛋白
Assay: IHC on FFPE cervical cancer tissue array, clone supernatant

T1 sequence (P03126 whole entry): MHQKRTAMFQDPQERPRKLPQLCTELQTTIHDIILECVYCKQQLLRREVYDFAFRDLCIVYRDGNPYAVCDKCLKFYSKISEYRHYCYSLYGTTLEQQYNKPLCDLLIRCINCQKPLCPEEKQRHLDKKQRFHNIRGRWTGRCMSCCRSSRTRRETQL

B1: 抗HPV16 E6单克隆抗体A3E1 (antibody, V domains shown)
VH: QSLEESGGGLVTPGGTLTLTCTASGIDFSANYWIYWVRQTPGKGLEWIASIFTSDGETHYATWAKGRFTISKTSSTTVTLQMTSLTAADTATYFCATGGALWGPGTLVTVSS
VL: DIVMTQTPASVEAAVGGTVTIKCQASEDIENYLAWYQQKPGQPPKRLIYKASTLASGVPSRFKGSGSGTDFTLTISDLECADAATYYCQSNYYNFGSNYGSFAFGGGTEVVVK
notes: Rabbit monoclonal IgG from single B cell cloning, tested as B cell clone supernatant and as recombinant IgG from CHO cells; also called 克隆上清A3E1; 抗体克隆A3E1
Does B1 bind?
Result: binds
